Test results taken from US20140348819A1, “Methods of Treating Cancer” (Dana-Farber Cancer Institute, Inc., priority 2011, published 2014).

System: six V600E BRAF melanoma cell lines
Test: Screening of recombinant RTK ligands for ability to confer resistance to BRAFi (PLX4720) or MEKi (PD184352) (Table 4)
Assay type: cell-based, human
Set-up: ability of recombinant RTK ligand to confer resistance / ability of recombinant RTK ligand to confer resistance (screening value): scale not given here
Method: HGF is the only one that can substantially confer drug resistance to the cell lines.
The complexity of the tumor microenvironment is much greater than an in vitro co-culture system. Therefore, the inventors explored whether the activation of other RTKs could result in a similar resistance as that observed with the activation of MET. To this end, six V600E BRAF melanoma cell lines were tested for their resistance to either BRAFi (PLX4720) or MEKi (PD184352) after the addition of 22 RTK ligands that have the potential of activating almost all known RTKs. […] The activation of a selected subset of these RTKs was confirmed by western blotting and by high throughput tyrosine kinase phosphorylation profiling.

B1: Angiopoietin-1 (protein, UniProt Q15389 16-498, looked up)
Angiopoietin-1: HIGCSNQRRSPENSGRRYNRIQHGQCAYTFILPEHDGNCRESTTDQYNTNALQRDAPHVEPDFSSQKLQHLEHVMENYTQWLQKLENYIVENMKSEMAQIQQNAVQNHTATMLEIGTSLLSQTAEQTRKLTDVETQVLNQTSRLEIQLLENSLSTYKLEKQLLQQTNEILKIHEKNSLLEHKILEMEGKHKEELDTLKEEKENLQGLVTRQTYIIQELEKQLNRATTNNSVLQKQQLELMDTVHNLVNLCTKEGVLLKGGKREEEKPFRDCADVYQAGFNKSGIYTIYINNMPEPKKVFCNMDVNGGGWTVIQHREDGSLDFQRGWKEYKMGFGNPSGEYWLGNEFIFAITSQRQYMLRIELMDWEGNRAYSQYDRFHIGNEKQNYRLYLKGHTGTAGKQSSLILHGADFSTKDADNDNCMCKCALMLTGGWWFDACGPSNLNGMFYTAGQNHGKLNGIKWHYFKGPSYSLRSTTMMIRPLDF
For B1, the “ability of recombinant RTK ligand to confer resistance” value (shortened to “ability of recombinant RTK ligand”) (A2058, PD184352 - 1 uM, ligand 1.56 ng/ml) was 1.02, the “ability of recombinant RTK ligand” value (A2058, PD184352 - 1 uM, ligand 6.25 ng/ml) was 1.03 and the “ability of recombinant RTK ligand” value (A2058, PD184352 - 1 uM, ligand 25 ng/ml) was 0.96. For the same molecule, the “ability of recombinant RTK ligand” value (A2058, PD184352 - 1 uM, ligand 100 ng/ml) was 0.99, the “ability of recombinant RTK ligand” value (A2058, PD184352 - 1 uM, ligand 400 ng/ml) was 0.90 and the “ability of recombinant RTK ligand” value (A2058, PLX4720 - 2 uM, ligand 1.56 ng/ml) was 1.02. For the same molecule, the “ability of recombinant RTK ligand” value (A2058, PLX4720 - 2 uM, ligand 6.25 ng/ml) was 1.02, the “ability of recombinant RTK ligand” value (A2058, PLX4720 - 2 uM, ligand 25 ng/ml) was 0.91 and the “ability of recombinant RTK ligand” value (A2058, PLX4720 - 2 uM, ligand 100 ng/ml) was 0.97. The “ability of recombinant RTK ligand” value (A2058, PLX4720 - 2 uM, ligand 400 ng/ml) was 0.96, the “ability of recombinant RTK ligand” value (C32, PD184352 - 1 uM, ligand 1.56 ng/ml) was 1.08 and the “ability of recombinant RTK ligand” value (C32, PD184352 - 1 uM, ligand 6.25 ng/ml) was 1.07. The “ability of recombinant RTK ligand” value (C32, PD184352 - 1 uM, ligand 25 ng/ml) was 1.02, the “ability of recombinant RTK ligand” value (C32, PD184352 - 1 uM, ligand 100 ng/ml) was 1.07 and the “ability of recombinant RTK ligand” value (C32, PD184352 - 1 uM, ligand 400 ng/ml) was 0.98. The “ability of recombinant RTK ligand” value (C32, PLX4720 - 2 uM, ligand 1.56 ng/ml) was 1.20, the “ability of recombinant RTK ligand” value (C32, PLX4720 - 2 uM, ligand 6.25 ng/ml) was 1.09 and the “ability of recombinant RTK ligand” value (C32, PLX4720 - 2 uM, ligand 25 ng/ml) was 1.14. The “ability of recombinant RTK ligand” value (C32, PLX4720 - 2 uM, ligand 100 ng/ml) was 1.08, the “ability of recombinant RTK ligand” value (C32, PLX4720 - 2 uM, ligand 400 ng/ml) was 0.99 and the “ability of recombinant RTK ligand” value (Colo 829, PD184352 - 1 uM, ligand 1.56 ng/ml) was 0.94. The “ability of recombinant RTK ligand” value (Colo 829, PD184352 - 1 uM, ligand 6.25 ng/ml) was 0.97, the “ability of recombinant RTK ligand” value (Colo 829, PD184352 - 1 uM, ligand 25 ng/ml) was 0.97 and the “ability of recombinant RTK ligand” value (Colo 829, PD184352 - 1 uM, ligand 100 ng/ml) was 0.93. For the same molecule, the “ability of recombinant RTK ligand” value (Colo 829, PD184352 - 1 uM, ligand 400 ng/ml) was 0.97, the “ability of recombinant RTK ligand” value (Colo 829, PLX4720 - 2 uM, ligand 1.56 ng/ml) was 0.93 and the “ability of recombinant RTK ligand” value (Colo 829, PLX4720 - 2 uM, ligand 6.25 ng/ml) was 0.97. The “ability of recombinant RTK ligand” value (Colo 829, PLX4720 - 2 uM, ligand 25 ng/ml) was 0.95, the “ability of recombinant RTK ligand” value (Colo 829, PLX4720 - 2 uM, ligand 100 ng/ml) was 0.94 and the “ability of recombinant RTK ligand” value (Colo 829, PLX4720 - 2 uM, ligand 400 ng/ml) was 1.05. The “ability of recombinant RTK ligand” value (G-361, PD184352 - 1 uM, ligand 1.56 ng/ml) was 0.98, the “ability of recombinant RTK ligand” value (G-361, PD184352 - 1 uM, ligand 6.25 ng/ml) was 0.96 and the “ability of recombinant RTK ligand” value (G-361, PD184352 - 1 uM, ligand 25 ng/ml) was 0.92. For the same molecule, the “ability of recombinant RTK ligand” value (G-361, PD184352 - 1 uM, ligand 100 ng/ml) was 0.95, the “ability of recombinant RTK ligand” value (G-361, PD184352 - 1 uM, ligand 400 ng/ml) was 0.75 and the “ability of recombinant RTK ligand” value (G-361, PLX4720 - 2 uM, ligand 1.56 ng/ml) was 1.02. For the same molecule, the “ability of recombinant RTK ligand” value (G-361, PLX4720 - 2 uM, ligand 6.25 ng/ml) was 0.96, the “ability of recombinant RTK ligand” value (G-361, PLX4720 - 2 uM, ligand 25 ng/ml) was 0.97 and the “ability of recombinant RTK ligand” value (G-361, PLX4720 - 2 uM, ligand 100 ng/ml) was 0.83. The “ability of recombinant RTK ligand” value (G-361, PLX4720 - 2 uM, ligand 400 ng/ml) was 0.84, the “ability of recombinant RTK ligand” value (SK-MEL-5, PD184352 - 1 uM, ligand 1.56 ng/ml) was 1.03 and the “ability of recombinant RTK ligand” value (SK-MEL-5, PD184352 - 1 uM, ligand 6.25 ng/ml) was 0.93. For the same molecule, the “ability of recombinant RTK ligand” value (SK-MEL-5, PD184352 - 1 uM, ligand 25 ng/ml) was 0.95, the “ability of recombinant RTK ligand” value (SK-MEL-5, PD184352 - 1 uM, ligand 100 ng/ml) was 0.92 and the “ability of recombinant RTK ligand” value (SK-MEL-5, PD184352 - 1 uM, ligand 400 ng/ml) was 0.87. The “ability of recombinant RTK ligand” value (SK-MEL-5, PLX4720 - 2 uM, ligand 1.56 ng/ml) was 1.05, the “ability of recombinant RTK ligand” value (SK-MEL-5, PLX4720 - 2 uM, ligand 6.25 ng/ml) was 1.02 and the “ability of recombinant RTK ligand” value (SK-MEL-5, PLX4720 - 2 uM, ligand 25 ng/ml) was 0.98. The “ability of recombinant RTK ligand” value (SK-MEL-5, PLX4720 - 2 uM, ligand 100 ng/ml) was 1.03, the “ability of recombinant RTK ligand” value (SK-MEL-5, PLX4720 - 2 uM, ligand 400 ng/ml) was 1.04 and the “ability of recombinant RTK ligand” value (SK-MEL-28, PD184352 - 1 uM, ligand 1.56 ng/ml) was 1.09. For the same molecule, the “ability of recombinant RTK ligand” value (SK-MEL-28, PD184352 - 1 uM, ligand 6.25 ng/ml) was 1.04, the “ability of recombinant RTK ligand” value (SK-MEL-28, PD184352 - 1 uM, ligand 25 ng/ml) was 1.12 and the “ability of recombinant RTK ligand” value (SK-MEL-28, PD184352 - 1 uM, ligand 100 ng/ml) was 0.98. The “ability of recombinant RTK ligand” value (SK-MEL-28, PD184352 - 1 uM, ligand 400 ng/ml) was 0.96, the “ability of recombinant RTK ligand” value (SK-MEL-28, PLX4720 - 2 uM, ligand 1.56 ng/ml) was 1.05 and the “ability of recombinant RTK ligand” value (SK-MEL-28, PLX4720 - 2 uM, ligand 6.25 ng/ml) was 0.96. The “ability of recombinant RTK ligand” value (SK-MEL-28, PLX4720 - 2 uM, ligand 25 ng/ml) was 1.02, the “ability of recombinant RTK ligand” value (SK-MEL-28, PLX4720 - 2 uM, ligand 100 ng/ml) was 0.96 and the “ability of recombinant RTK ligand” value (SK-MEL-28, PLX4720 - 2 uM, ligand 400 ng/ml) was 0.99.
